# Earlier results as cited in patent US20190382462A1, “METHODS AND COMPOSITIONS FOR TREATING HPA HYPERACTIVITY” (priority 2017, published 2019).
# T1: r/hCRF (Homo sapiens, UniProt P06850)
# T1 sequence (P06850 154-194 limits assumed): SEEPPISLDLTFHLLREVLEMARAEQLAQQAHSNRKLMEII
# T2: rUcn 1 (Rattus norvegicus, UniProt P55090)
# T2 sequence (P55090 81-120 limits assumed): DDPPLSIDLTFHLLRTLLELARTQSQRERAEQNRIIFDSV
# B1: CRFBPC237A/C264A: CRF-BP derivative lacking the cysteines of the fourth disulfide bridge (C237/C264) (protein, UniProt P24387 25-322, looked up, variant C237A C264A)
# Corticotropin-releasing …: YLELREAADYDPFLLFSANLKRELAGEQPYRRALRCLDMLSLQGQFTFTADRPQLHCAAFFISEPEEFITIHYDQVSIDCQGGDFLKVFDGWILKGEKFPSSQDHPLPSAERYIDFCESGLSRRSIRSSQNVAMIFFRVHEPGNGFTLTIKTDPNLFPCNVISQTPNGKFTLVVPHQHRNCSFSIIYPVVIKISDLTLGHVNGLQLKKSSAGAEGIGDFVELLGGTGLDPSKMTPLADLAYPFHGPAQMKVGCDNTVVRMVSSGKHVNRVTFEYRQLEPYELENPNGNSIGEFCLSGL
# B2: CRF-BPC277A/C318A: CRF-BP derivative lacking the cysteines of the fifth disulfide bridge (C277/C318) (protein, UniProt P24387 25-322, looked up, variant C277A C318A)
# Corticotropin-releasing …: YLELREAADYDPFLLFSANLKRELAGEQPYRRALRCLDMLSLQGQFTFTADRPQLHCAAFFISEPEEFITIHYDQVSIDCQGGDFLKVFDGWILKGEKFPSSQDHPLPSAERYIDFCESGLSRRSIRSSQNVAMIFFRVHEPGNGFTLTIKTDPNLFPCNVISQTPNGKFTLVVPHQHRNCSFSIIYPVVIKISDLTLGHVNGLQLKKSSAGCEGIGDFVELLGGTGLDPSKMTPLADLCYPFHGPAQMKVGADNTVVRMVSSGKHVNRVTFEYRQLEPYELENPNGNSIGEFALSGL
# B3: L61A: CRF-BP alanine mutant (protein, UniProt P24387 25-322, looked up, variant L61A)
# Corticotropin-releasing …: YLELREAADYDPFLLFSANLKRELAGEQPYRRALRCADMLSLQGQFTFTADRPQLHCAAFFISEPEEFITIHYDQVSIDCQGGDFLKVFDGWILKGEKFPSSQDHPLPSAERYIDFCESGLSRRSIRSSQNVAMIFFRVHEPGNGFTLTIKTDPNLFPCNVISQTPNGKFTLVVPHQHRNCSFSIIYPVVIKISDLTLGHVNGLQLKKSSAGCEGIGDFVELLGGTGLDPSKMTPLADLCYPFHGPAQMKVGCDNTVVRMVSSGKHVNRVTFEYRQLEPYELENPNGNSIGEFCLSGL
# B4: E121A: CRF-BP alanine mutant (protein, UniProt P24387 25-322, looked up, variant E121A)
# Corticotropin-releasing …: YLELREAADYDPFLLFSANLKRELAGEQPYRRALRCLDMLSLQGQFTFTADRPQLHCAAFFISEPEEFITIHYDQVSIDCQGGDFLKVFDGWILKGAKFPSSQDHPLPSAERYIDFCESGLSRRSIRSSQNVAMIFFRVHEPGNGFTLTIKTDPNLFPCNVISQTPNGKFTLVVPHQHRNCSFSIIYPVVIKISDLTLGHVNGLQLKKSSAGCEGIGDFVELLGGTGLDPSKMTPLADLCYPFHGPAQMKVGCDNTVVRMVSSGKHVNRVTFEYRQLEPYELENPNGNSIGEFCLSGL
# B5: F123A: CRF-BP alanine mutant (protein, UniProt P24387 25-322, looked up, variant F123A)
# Corticotropin-releasing …: YLELREAADYDPFLLFSANLKRELAGEQPYRRALRCLDMLSLQGQFTFTADRPQLHCAAFFISEPEEFITIHYDQVSIDCQGGDFLKVFDGWILKGEKAPSSQDHPLPSAERYIDFCESGLSRRSIRSSQNVAMIFFRVHEPGNGFTLTIKTDPNLFPCNVISQTPNGKFTLVVPHQHRNCSFSIIYPVVIKISDLTLGHVNGLQLKKSSAGCEGIGDFVELLGGTGLDPSKMTPLADLCYPFHGPAQMKVGCDNTVVRMVSSGKHVNRVTFEYRQLEPYELENPNGNSIGEFCLSGL
# Experiments:
# [1] = molecular target: T1, r/hCRF; conditions: cited from earlier work; for loss of affinity for r/hCRF: alanine mutants of CRF-BP
# [2] = molecular target: T2, rUcn 1; conditions: cited from earlier work; for loss of affinity for rUcn 1: alanine mutants of CRF-BP
Molecule,affinity for r/hCRF compared with WT CRF-BP [1],affinity for rUcn 1 compared with WT CRF-BP [2],loss of affinity for r/hCRF [1],loss of affinity for rUcn 1 [2]
B1,indistinguishable from that of WT CRF-BP,indistinguishable from that of WT CRF-BP,–,–
B2,indistinguishable from that of WT CRF-BP,indistinguishable from that of WT CRF-BP,–,–
B3,–,–,partial,partial
B4,–,–,partial,partial
B5,–,–,partial,partial
